In IntAct's records for PubMed 21135508:

B1: Myotubularin (Homo sapiens), Q13496 (parent)
chain: MASASTSKYNSHSLENESIKRTSRDGVNRDLTEAVPRLPGETLITDKEVIYICPFNGPIKGRVYITNYRLYLRSLETDSSLILDVPLGVISRIEKMGGATSRGENSYGLDITCKDMRNLRFALKQEGHSRRDMFEILTRYAFPLAHSLPLFAFLNEEKFNVDGWTVYNPVEEYRRQGLPNHHWRITFINKCYELCDTYPALLVVPYRASDDDLRRVATFRSRNRIPVLSWIHPENKTVIVRCSQPLVGMSGKRNKDDEKYLDVIRETNKQISKLTIYDARPSVNAVANKATGGGYESDDAYHNAELFFLDIHNIHVMRESLKKVKDIVYPNVEESHWLSSLESTHWLEHIKLVLTGAIQVADKVSSGKSSVLVHCSDGWDRTAQLTSLAMLMLDSFYRSIEGFEILVQKEWISFGHKFASRIGHGDKNHTDADRSPIFLQFIDCVWQMSKQFPTAFEFNEQFLIIILDHLYSCRFGTFLFNCESARERQKVTERTVSLWSLINSNKEKFKNPFYTKEINRVLYPVASMRHLELWVNYYIRWNPRIKQQQPNPVEQRYMELLALRDEYIKRLEELQLANSAKLSDPPTSPSSPSQMMPHVQTHF

Variants of: B1
Details: with desm_human DES

Effect of a mutation on the interaction, disrupting interaction:
P205L
D278A
R241C
R184G
